Measurements published in patent publication US20250222125A1, “Anti-FGFR2b Antibodies, Conjugates and Methods of Use” (BeiGene, Ltd., priority 2024, published 2025).

B1: BGAm1823 (antibody, V domains shown)
VH: EVQLQQSGAELVKPGASVKISCKASGYAFSIYWMNWVKQRPGKGLEWIGQIYPENGDTNYNGKFKGKATLTADKSSSTAYMHLSSLTSEDSAVYFCARGGFDYWGQGTTLTVSS
VL: NIVMTQSPASLSASVGETVTITCRASENIYSNLAWYQQKQGKSPQLLVYTATNLADGVPSRFSGSGSGTQFSLKINSLQPEDFGSYYCQHFYGILYTFGSGTRLEIK
B2: BGAh9239 (antibody, human IgG1, kappa, V domains shown)
VH: QVQLVQSGAEVKKPGSSVKVSCKASGYTFSIYWLNWVRQAPGQGLEWMGQIYPENADTNYSGKFKGRVTITADKSTSTAYMELSSLRSEDTAVYFCARGGFDYWGQGTLVTVSS
VL: DIQMTQSPSSLSASVGDRVTITCRASENIYSNLAWYQQKPGKAPKLLIYTATNLAEGVPSRFSGSGSGTDFTLTISSLQPEDFATYYCQHFYGILYTFGQGTRLEIKR
B3: BGAm1371 (antibody, V domains shown)
VH: QVQLKQSGAELVKPGASVKLSCTASGFNIKDTYIHWVKQRPEQGLEWIGRIDPANGNTMFASEFQGKATITAYTSSNTAYMQLSSLTSGDTAVYYCARSKIHYDYDEGFAYWGQGTLVTVSS
VL: NIVLTQSPPSLAVSLGQRATVSCRASESVDDYGYSFLHWYQQKPGQPPKLLIYRASNLESGIPARFSGSGSRTDFTLTINPVETDDVATYYCQQSNQNPRTFGGGTKLEIK
B4: BGAh9179 (antibody, human IgG1, kappa, V domains shown)
VH: QVQLVQSGAEVKKPGASVKVSCKASGYTITDTYIHWVRQAPGQGLEWMGRIDPAEGNTMFASEFQGRVTMTADTSTSTVYMELSSLRSEDTAVYYCARSKIHYDYDEGFAYWGQGTLVTVSS
VL: DIVLTQSPDSLAVSLGERATINCRASESVDDYGYSFLHWYQQKPGQPPKLLIYRASNLESGVPDRFSGSGSGTDFTLTISSLQAEDVAVYYCQQSNQNPRTFGGGTKVEIKR
B5: BGA1421 (antibody, human IgG1, kappa, V domains shown)
VH: QVQLVQSGAEVKKPGSSVKVSCKASGYIFTTYNVHWVRQAPGQGLEWIGSIYPDNGDTSYNQNFKGRATITADKSTSTAYMELSSLRSEDTAVYYCARGDFAYWGQGTLVTVSS
VL: DIQMTQSPSSLSASVGDRVTITCKASQGVSNDVAWYQQKPGKAPKLLIYSASYRYTGVPSRFSGSGSGTDFTFTISSLQPEDIATYYCQQHSTTPYTFGQGTKLEIKR

target: mouse FGFR2b on cells (mouse) (UniProt P21803); assay: flow cytometry, Expi293 cells overexpressing mouse FGFR2b

| EC50 [nM] | Emax (MFI) | Binder |
| --- | --- | --- |
| 3.37 | 5.19e+06 | B1 |
| 2.67 | 5.1e+06 | B2 |
| 3.5 | 4.98e+06 | B3 |
| 4.25 | 5.15e+06 | B4 |

target: human FGFR2b on cells (human) (UniProt P21802); assay: flow cytometry, human FGFR2b OE cells
Sequence (P21802 other isoform, or with tags, fused parts or gaps limits assumed): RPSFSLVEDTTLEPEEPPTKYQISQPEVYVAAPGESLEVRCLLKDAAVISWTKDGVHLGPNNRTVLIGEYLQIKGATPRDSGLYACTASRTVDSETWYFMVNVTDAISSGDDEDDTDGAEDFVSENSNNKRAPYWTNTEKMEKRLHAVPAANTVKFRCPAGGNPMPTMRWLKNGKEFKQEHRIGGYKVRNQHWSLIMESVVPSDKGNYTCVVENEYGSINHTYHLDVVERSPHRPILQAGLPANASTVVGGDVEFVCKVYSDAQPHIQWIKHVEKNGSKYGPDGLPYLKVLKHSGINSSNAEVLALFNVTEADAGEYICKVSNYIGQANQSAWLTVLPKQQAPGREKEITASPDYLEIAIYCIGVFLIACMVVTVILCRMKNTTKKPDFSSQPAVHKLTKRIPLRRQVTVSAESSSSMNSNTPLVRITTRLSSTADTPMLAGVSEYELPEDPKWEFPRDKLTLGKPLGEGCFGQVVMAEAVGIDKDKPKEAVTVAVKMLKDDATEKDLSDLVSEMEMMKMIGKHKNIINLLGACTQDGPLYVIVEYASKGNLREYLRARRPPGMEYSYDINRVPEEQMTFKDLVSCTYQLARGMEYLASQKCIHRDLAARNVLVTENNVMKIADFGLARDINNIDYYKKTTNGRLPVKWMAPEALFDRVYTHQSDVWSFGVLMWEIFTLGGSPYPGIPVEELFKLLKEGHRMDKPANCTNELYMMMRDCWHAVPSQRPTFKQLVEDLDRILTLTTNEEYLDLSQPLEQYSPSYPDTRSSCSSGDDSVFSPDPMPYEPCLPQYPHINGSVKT

| EC50 [nM] | Binder |
| --- | --- |
| 1.84 | B2 |
| 1.25 | B3 |
| 0.48 | B5 |

target: human FGFR2c protein (recombinant, coated on ELISA plates) (human) (UniProt P21802); assay: ELISA, plate-coated human FGFR2c

| Emax (A450) | Emax (OD450) | Binder |
| --- | --- | --- |
| 0.116 | – | B1 |
| 0.13 | 0.07 | B2 |
| 0.204 | 0.07 | B3 |
| – | 0.09 | B5 |
| 0.086 | – | B4 |

target: mouse FGFR2b on cells (mouse) (UniProt P21803); assay: flow cytometry, murine FGFR2b OE cells

| EC50 [nM] | Binder |
| --- | --- |
| 1.59 | B2 |
| 1.78 | B3 |
| 0.81 | B5 |

target: human FGFR2b protein (recombinant, coated on ELISA plates) (human) (UniProt P21802); assay: ELISA, plate-coated human FGFR2b
Sequence (P21802 other isoform, or with tags, fused parts or gaps limits assumed): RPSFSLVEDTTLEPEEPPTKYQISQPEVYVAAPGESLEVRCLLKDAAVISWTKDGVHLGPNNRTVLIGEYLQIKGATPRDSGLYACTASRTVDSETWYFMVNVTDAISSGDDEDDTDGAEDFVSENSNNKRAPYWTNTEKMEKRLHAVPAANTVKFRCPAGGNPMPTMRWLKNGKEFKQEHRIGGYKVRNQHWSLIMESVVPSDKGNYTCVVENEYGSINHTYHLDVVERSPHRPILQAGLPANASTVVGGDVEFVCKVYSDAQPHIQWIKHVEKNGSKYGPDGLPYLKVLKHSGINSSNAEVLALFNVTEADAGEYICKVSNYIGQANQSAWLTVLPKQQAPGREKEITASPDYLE

| EC50 [nM] | Emax (A450) | Binder |
| --- | --- | --- |
| 0.0442 | 2.95 | B1 |
| 0.031 | 2.94 | B2 |
| 0.0309 | 3.01 | B3 |
| 0.0518 | 2.99 | B4 |

target: soluble human FGFR2b protein (his tag, in-house generated) (human) (UniProt P21802); assay: SPR, antibody captured by anti-human Fc, human FGFR2b

| Kd [nM] | koff [s⁻¹] | kon [M⁻¹ s⁻¹] | Binder |
| --- | --- | --- | --- |
| 24.2 | 0.00185 | 76300 | B1 |
| 37.3 | 0.003 | 80500 | B2 |
| 16.3 | 0.00119 | 72900 | B3 |
| 21.8 | 0.00178 | 81600 | B4 |

target: human FGFR2c on cells (human) (UniProt P21802); assay: flow cytometry, Expi293 cells overexpressing human FGFR2c
Sequence (P21802 22-821): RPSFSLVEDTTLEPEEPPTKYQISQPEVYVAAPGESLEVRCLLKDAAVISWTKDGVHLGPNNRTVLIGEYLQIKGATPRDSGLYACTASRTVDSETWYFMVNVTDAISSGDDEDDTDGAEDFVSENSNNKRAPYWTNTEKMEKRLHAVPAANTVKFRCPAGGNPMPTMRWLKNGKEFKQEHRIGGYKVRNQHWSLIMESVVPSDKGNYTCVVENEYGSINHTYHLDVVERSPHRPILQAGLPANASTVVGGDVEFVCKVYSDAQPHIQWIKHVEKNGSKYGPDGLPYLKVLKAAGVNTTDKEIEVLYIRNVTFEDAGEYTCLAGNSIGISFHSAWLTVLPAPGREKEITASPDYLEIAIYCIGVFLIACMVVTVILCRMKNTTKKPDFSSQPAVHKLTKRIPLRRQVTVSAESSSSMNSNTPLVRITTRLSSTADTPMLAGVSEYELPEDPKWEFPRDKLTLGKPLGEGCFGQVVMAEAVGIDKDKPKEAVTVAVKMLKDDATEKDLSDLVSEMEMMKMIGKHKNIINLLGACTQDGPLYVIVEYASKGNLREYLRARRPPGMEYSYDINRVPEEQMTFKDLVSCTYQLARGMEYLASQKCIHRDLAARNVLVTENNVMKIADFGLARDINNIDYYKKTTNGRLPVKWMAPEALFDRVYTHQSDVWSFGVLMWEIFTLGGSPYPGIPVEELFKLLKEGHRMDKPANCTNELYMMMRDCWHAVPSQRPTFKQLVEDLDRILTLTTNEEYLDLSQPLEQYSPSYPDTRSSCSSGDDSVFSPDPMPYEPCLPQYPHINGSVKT

| Emax (MFI) | Binder |
| --- | --- |
| 22600 | B1 |
| 23800 | B2 |
| 23100 | B3 |
| 21700 | B4 |

target: human FGFR2b on cells (human) (UniProt P21802); assay: flow cytometry, Expi293 cells overexpressing human FGFR2b

| EC50 [nM] | Emax (MFI) | Binder |
| --- | --- | --- |
| 2.12 | 3.09e+06 | B1 |
| 2.4 | 3.08e+06 | B2 |
| 1.5 | 3.05e+06 | B3 |
| 3.29 | 2.98e+06 | B4 |

target: human FGFR2b protein (recombinant, coated on ELISA plates) (human) (UniProt P21802); assay: ELISA, plate-coated human FGFR2b; remark: another data set of the same source

| EC50 [nM] | Emax (OD450) | Binder |
| --- | --- | --- |
| 0.26 | 3.37 | B2 |
| 0.19 | 3.35 | B3 |
| 0.61 | 2.62 | B5 |

target: soluble human FGFR2b protein (his tag, in-house generated) (human) (UniProt P21802); assay: SPR (Biacore 8K), antibody captured by anti-human Fc, soluble human FGFR2b-his as analyte

| Kd [nM] | koff [s⁻¹] | kon [M⁻¹ s⁻¹] | Binder |
| --- | --- | --- | --- |
| 24.7 | 0.00189 | 76600 | B2 |
| 22.2 | 0.00232 | 104000 | B5 |
| 13.9 | 0.00112 | 80600 | B4 |

target: human FGFR2c on cells (human) (UniProt P21802); assay: flow cytometry, human FGFR2c OE cells

| Emax (MFI) | Binder |
| --- | --- |
| 36 | B2 |
| 33 | B3 |
| 40 | B5 |
